Assay results reported in the Human Domainome abundance scans (Beltran et al. 2025).
± gives the uncertainty stated by the source.

B1: Serine/threonine-protein kinase LATS1, residues 98 to 141; numbered along this chain, O95835 (parent)
chain: TSEVNPQMLQDLQAAGFDEDMVIQALQKTNNRSIEAAIEFISKM

Variants of: B1
Test: abundance fitness (aPCA) (normalised: wild type 0, dead -1); higher = more abundant; growth selection in yeast, the domain comes from the species named
Conditions: Homo sapiens

Variant	abundance fitness
TSEVNPQMLQDLQAAGFDEDMVIQAHQKTNNRSIEAAIEFISKM	-0.111 ± 0.16
TSEVNPQMLQDLQAAGFDEDMVIQAKQKTNNRSIEAAIEFISKM	-0.424 ± 0.069
TSEVNPQMLQDLQAAGFDEDMVIQAQQKTNNRSIEAAIEFISKM	-0.412 ± 0.05
TSEVNPQMLQDLQAAGFDEDMVIQAPQKTNNRSIEAAIEFISKM	-0.341 ± 0.052
TSEVNPQMLQDLQAAGFDEDMVIQAVQKTNNRSIEAAIEFISKM	-0.571 ± 0.044
TSEVNPQMLQDLQAAGFDEDMVIQAGQKTNNRSIEAAIEFISKM	-0.358 ± 0.032
TSEVNPQMLQDLQAAGFDEDMVIQANQKTNNRSIEAAIEFISKM	-0.377 ± 0.06
TSEVNPQMLQDLQAAGFDEDMVIQADQKTNNRSIEAAIEFISKM	-0.354 ± 0.059
TSEVNPQMLQDLQAAGFDEDMVIQAMQKTNNRSIEAAIEFISKM	-0.559 ± 0.072
TSEVNPQMLQDLQAAGFDEDMVIQAFQKTNNRSIEAAIEFISKM	-0.54 ± 0.096
TSEVNPQMLQDLQAAGFDEDMVIQAAQKTNNRSIEAAIEFISKM	-0.523 ± 0.037
TSEVNPQMLQDLQAAGFDEDMVIQAIQKTNNRSIEAAIEFISKM	-0.292 ± 0.074
TSEVNPQMLQDLQAAGFDEDMVIQAWQKTNNRSIEAAIEFISKM	-0.683 ± 0.045
TSEVNPQMLQDLQAAGFDEDMVIQAEQKTNNRSIEAAIEFISKM	-0.263 ± 0.041
TSEVNPQMLQDLQAAGFDEDMVIQALQQTNNRSIEAAIEFISKM	-0.024 ± 0.057
TSEVNPQMLQDLQAAGFDEDMVIQALQRTNNRSIEAAIEFISKM	-0.048 ± 0.035
TSEVNPQMLQDLQAAGFDEDMVIQALQHTNNRSIEAAIEFISKM	0.073 ± 0.054
TSEVNPQMLQDLQAAGFDEDMVIQALQATNNRSIEAAIEFISKM	0.12 ± 0.038
TSEVNPQMLQDLQAAGFDEDMVIQALQLTNNRSIEAAIEFISKM	-0.366 ± 0.038
TSEVNPQMLQDLQAAGFDEDMVIQALQTTNNRSIEAAIEFISKM	-0.259 ± 0.067

Variant	abundance fitness
TSEVNPQMLQDLQAAGFDEDMVIQALQCTNNRSIEAAIEFISKM	-0.129 ± 0.05
TSEVNPQMLQDLQAAGFDEDMVIQALQPTNNRSIEAAIEFISKM	-0.74 ± 0.072
TSEVNPQMLQDLQAAGFDEDMVIQALQYTNNRSIEAAIEFISKM	-0.027 ± 0.075
TSEVNPQMLQDLQAAGFDEDMVIQALQDTNNRSIEAAIEFISKM	-0.257 ± 0.063
TSEVNPQMLQDLQAAGFDEDMVIQALQETNNRSIEAAIEFISKM	0.034 ± 0.039
TSEVNPQMLQDLQAAGFDEDMVIQALQFTNNRSIEAAIEFISKM	-0.148 ± 0.05
TSEVNPQMLQDLQAAGFDEDMVIQALQITNNRSIEAAIEFISKM	-0.445 ± 0.13
TSEVNPQMLQDLQAAGFDEDMVIQALQVTNNRSIEAAIEFISKM	-0.163 ± 0.036
TSEVNPQMLQDLQAAGFDEDMVIQALQGTNNRSIEAAIEFISKM	-0.08 ± 0.031
TSEVNPQMLQDLQAAGFDEDMVIQALQSTNNRSIEAAIEFISKM	-0.041 ± 0.035
TSEVNPQMLQDLQAAGFDEDMVIQALQWTNNRSIEAAIEFISKM	-0.444 ± 0.035
TSEVNPQMLQDLQAAGFDEDMVIQALQMTNNRSIEAAIEFISKM	-0.037 ± 0.046
TSEVNPQMLQDLQAAGFDEDMVTQALQKTNNRSIEAAIEFISKM	-0.041 ± 0.045
TSEVNPQMLQDLQAAGFDEDMVSQALQKTNNRSIEAAIEFISKM	-0.183 ± 0.038
TSEVNPQMLQDLQAAGFDEDMVWQALQKTNNRSIEAAIEFISKM	-0.373 ± 0.045
TSEVNPQMLQDLQAAGFDEDMVRQALQKTNNRSIEAAIEFISKM	0.024 ± 0.034
TSEVNPQMLQDLQAAGFDEDMVVQALQKTNNRSIEAAIEFISKM	0.039 ± 0.037
TSEVNPQMLQDLQAAGFDEDMVYQALQKTNNRSIEAAIEFISKM	-0.211 ± 0.064
TSEVNPQMLQDLQAAGFDEDMVIQALQKMNNRSIEAAIEFISKM	-0.919 ± 0.1
TSEVNPQMLQDLQAAGFDEDMVIQALQKGNNRSIEAAIEFISKM	-0.527 ± 0.033

Variant	abundance fitness
TSEVNPQMLQDLQAAGFDEDMVIQALQKLNNRSIEAAIEFISKM	-0.954 ± 0.071
TSEVNPQMLQDLQAAGFDEDMVIQALQKQNNRSIEAAIEFISKM	-0.563 ± 0.071
TSEVNPQMLQDLQAAGFDEDMVIQALQKCNNRSIEAAIEFISKM	-0.375 ± 0.043
TSEVNPQMLQDLQAAGFDEDMVIQALQKFNNRSIEAAIEFISKM	-1.09 ± 0.16
TSEVNPQMLQDLQAAGFDEDMVIQALQKNNNRSIEAAIEFISKM	-0.414 ± 0.1
TSEVNPQMLQDLQAAGFDEDMVIQALQKDNNRSIEAAIEFISKM	-0.902 ± 0.29
TSEVNPQMLQDLQAAGFDEDMVIQALQKWNNRSIEAAIEFISKM	-1.09 ± 0.083
TSEVNPQMLQDLQAAGFDEDMVIQALQKPNNRSIEAAIEFISKM	-0.524 ± 0.1
TSEVNPQMLQDLQAAGFDEDMVIQALQKKNNRSIEAAIEFISKM	-0.806 ± 0.1
TSEVNPQMLQDLQAAGFDEDMVIQALQKSNNRSIEAAIEFISKM	-0.463 ± 0.04
TSEVNPQMLQDLQAAGFDEDMVIQALQKRNNRSIEAAIEFISKM	-0.715 ± 0.041
TSEVNPQMLQDLQAAGFDEDMVIQALQKVNNRSIEAAIEFISKM	-0.191 ± 0.039
TSEVNPQMLQDLQAAGFDEDMVIQALQKINNRSIEAAIEFISKM	-0.589 ± 0.073
TSEVNPQMLQDLQAAGFDEDMVIQALQKANNRSIEAAIEFISKM	-0.646 ± 0.047
TSEVNPQMLQDLQAAGFDEDMVIQALQKENNRSIEAAIEFISKM	-0.529 ± 0.046
TSEVNPQMLQDLQAAGFDEDMVIPALQKTNNRSIEAAIEFISKM	-0.323 ± 0.048
TSEVNPQMLQDLQAAGFDEDMVIDALQKTNNRSIEAAIEFISKM	-0.005 ± 0.05
TSEVNPQMLQDLQAAGFDEDMVINALQKTNNRSIEAAIEFISKM	-0.146 ± 0.072
